# Test results taken from patent US7076372 (Takeda / Millennium, dated 2006).
# B1: MvaS from E. faecalis (HMG-CoA Synthase), full-length with non-cleavable carboxy-terminal six histidine tag, seleno-methionine labeled (enzyme)
# chain: MTIGIDKISFFVPPYYIDMTALAEARNVDPGKFHIGIGQDQMAVNPISQDIVTFAANAAEAILTKEDKEAIDMVIVGTESSIDESKAAAVVLHRLMGIQPFARSFEIKEACYGATAGLQLAKNHVALHPDKKVLVVAADIAKYGLNSGGEPTQGAGAVAMLVASEPRILALKEDNVMLTQDIYDFWRPTGHPYPMVDGPLSNETYIQSFAQVWDEHKKRTGLDFADYDALAFHIPYTKMGKKALLAKISDQTEAEQERILARYEESIVYSRRVGNLYTGSLYLGLISLLENATTLTAGNQIGLFSYGSGAVAEFFTGELVAGYQNHLQKETHLALLDNRTELSIAEYEAMFAETLDTDIDQTLEDELKYSISAINNTVRSYRNKGHHHHHH
# modifications: selenomethionine (MSE) in place of methionine, 100% incorporation by mass spectrometry
# notes: Crystallised as a complex with the small molecule HMG-CoA; There are two MvaS molecules in the asymmetric unit, described as a dimer; Coordinates lack residues 1 and 384-391 (molecule A) and residues 1 and 388-391 (molecule B); also called MvaS Ef
# Biological target: the molecule itself
# Test: X-ray crystal structure, two MvaS molecules in the asymmetric unit
protein,measurement,value
B1,binding result,binds
